Test results reported in patent US20230265179A1 (TWIST BIOSCIENCE, published 2023).
Where a chain is given by its changes, count along the chain named.

T1: CD40L over-expressed on Expi293 cells (UniProt P29965 1-261, limits assumed)
T1 construct: whole, on cells; also called cytokine over-expressing Expi293 cells
T1 sequence (looked up): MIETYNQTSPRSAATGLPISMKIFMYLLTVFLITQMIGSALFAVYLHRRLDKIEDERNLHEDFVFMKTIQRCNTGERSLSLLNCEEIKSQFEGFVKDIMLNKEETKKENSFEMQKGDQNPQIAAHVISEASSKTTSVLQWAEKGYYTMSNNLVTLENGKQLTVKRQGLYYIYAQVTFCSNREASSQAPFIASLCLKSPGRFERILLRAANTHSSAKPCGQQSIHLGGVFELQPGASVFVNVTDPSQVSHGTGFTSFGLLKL

T2: CD40L (UniProt P29965 113-261, limits assumed)
T2 construct: SPR analyte
T2 sequence (looked up): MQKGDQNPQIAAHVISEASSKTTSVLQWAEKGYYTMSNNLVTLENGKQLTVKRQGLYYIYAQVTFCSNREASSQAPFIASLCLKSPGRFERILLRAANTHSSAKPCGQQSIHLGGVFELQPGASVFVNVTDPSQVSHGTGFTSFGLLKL

B1: CD40L-1 (VHH)
VHH: EVQLVESGGGLVQPGGSLRLSCAASGRTFSSIYAMGWFRQAPGKEREFIAVIYWRDGSTLYADSVKGRFTISADNSKNTAYLQMNSLKPEDTAVYYCAAEPYGSGSSLISEYDWGQGTLVTVSS
B2: CD40L-2 (VHH)
VHH: EVQLVESGGGLVQPGGSLRLSCAASGGRTFSRYDMGWFRQAPGKEREFVAAISMSGDDAAYADSVKGRFTISADNSKNTAYLQMNSLKPEDTAVYYCASDHYDTDTKSDVYNWGQGTLVTVSS
B3: CD40L-53 (VHH)
VHH: B2 VHH with R32D, S53D, M54A, D57G, D58F, A59T, A60E
B4: CD40L-10 (VHH)
VHH: EVQLVESGGGLVQPGGSLRLSCAASGRIFSTYFMGWFRQAPGKEREFVAAIYWSNGKTQYADSVKGRFTISADNSKNTAYLQMNSLKPEDTAVYYCAAWLNGGNRWGQGTLVTVSS
B5: CD40L-49 (VHH)
VHH: B4 VHH with I28T, T31R, F33Y
B6: CD40L-3 (VHH)
VHH: B4 VHH with F47W, A49S, A50S, W53S, S54D, N55G, G56S, K57T, Q59D
B7: CD40L-37 (VHH)
VHH: EVQLVESGGGLVQPGGSLRLSCAASGRTFSSYYMGWFRQAPGKEREEVATFYTGDGRTYYADSVKGRFTISADNSKNTAYLQMNSLKPEDTAVYYCAAWLNGGNRWGQGTLVTVSS
B8: CD40L-7 (VHH)
VHH: B7 VHH with R27H, E47F, T50A, F51I, T53S, D55G, G56I, R57T, Y59H
B9: CD40L-4 (VHH)
VHH: EVQLVESGGGLVQPGGSLRLSCAASGFTLDYYAMGWFRQAPGKEREFVAYVFGGGEITDYADSVKGRFTISADNSKNTAYLQMNSLKPEDTAVYYCANGNGVAETWGQGTLVTVSS
B10: CD40L-13 (VHH)
VHH: EVQLVESGGGLVQPGGSLRLSCAASGFTFGNYDMGWFRQAPGKEREFVAAIDASGGFTEYADSVKGRFTISADNSKNTAYLQMNSLKPEDTAVYYCASDHYDTDTKSDVYNWGQGTLVTVSS
B11: CD40L-8 (VHH)
VHH: B10 VHH with F27R, G30S, N31R, Y32S, A50V, D52S, A53W, G56A, F57Y
B12: CD40L-11 (VHH)
VHH: EVQLVESGGGLVQPGGSLRLSCAASGRTWNDLDMGWFRQAPGKEREFVAAISMSGEDAAYADSVKGRFTISADNSKNTAYLQMNSLKPEDTAVYYCASDHYDTDTKSDVYNWGQGTLVTVSS
B13: CD40L-5 (VHH)
VHH: B10 VHH with F27L, T28L, G30S, N31S

Target: T1, CD40L over-expressed on Expi293 cells
Assay: flow cytometry, 100 nM antibody, CD40L-Expi293 vs parent Expi293 cells;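 note: ratio is the mean fluorescence intensity on CD40L-overexpressing Expi293 cells divided by the mean fluorescence intensity on parental Expi293 cells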
Procedure: All incubations and washes were in buffer containing PBS+1% BSA. MFI Ratio is defined by the mean fluorescence intensity (MFI) of the cytokine over-expressing Expi293 cell over the Expi293 parent cell. […] EC50 was calculated in GraphPad Prism.

Row | 100 nM FACS (MFI Ratio) [ratio] | Binder
1 | 119 | B1
2 | 99.1 | B2
3 | 104 | B3
4 | 93.6 | B4
5 | 36.8 | B5
6 | 87.9 | B6
7 | 97.7 | B7
8 | 95.4 | B8
9 | 11.8 | B9
10 | 37.3 | B10
11 | 80.9 | B11
12 | 84 | B12
13 | 72.9 | B13

Target: T2, CD40L
Assay: SPR (Carterra LSA), antibody amine-coupled, 1:1 model
Procedure: SPR experiments were performed on a Carterra LSA SPR biosensor equipped with a HC30M chip at 25° C. in HBS-TE. Antibodies were diluted to 10 μg/mL and amine-coupled to the sensor chip by EDC/NHS activation, followed by ethanolamine HCl quenching. Increasing concentrations of analyte were flowed over the sensor chip in HBS-TE with 0.5 mg/mL BSA with 5-minute association and 15-minute dissociation. Following each injection cycle the surface was regenerated with 2× 30-second injections of IgG elution buffer (Thermo). Data were analyzed in Carterra's Kinetics Tool software with 1:1 binding model.

Row | Kd [nM] | koff [s⁻¹] | kon [M⁻¹ s⁻¹] | Binder
14 | 0.986 | 9.43e-05 | 95600 | B1
15 | 3.18 | 0.000725 | 228000 | B2
16 | 0.0983 | 0.000167 | 1.7e+06 | B3
17 | ≤ 0.326 | ≤ 1e-05 | 30700 | B4
18 | 47.9 | 0.00121 | 25300 | B5
19 | 2.91 | 0.000159 | 54700 | B6
20 | 2.39 | 0.000199 | 83300 | B7
21 | 6.93 | 0.000121 | 17400 | B8
22 | 5.82 | 0.00147 | 252000 | B9
23 | ≤ 0.0113 | ≤ 1e-05 | 888000 | B10
24 | 1.37 | 0.0004 | 291000 | B11
25 | 0.882 | 0.000574 | 651000 | B12
26 | 0.295 | 0.000196 | 662000 | B13
